Data: the nanobody polyreactivity screen of Harvey et al. (2022)

Experiment: yeast display, Sf9 membrane polyspecificity reagent, FACS + sequencing; frameworks hold sequencing errors
Procedure, shortened: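 Nanobodies from a synthetic yeast display library (Saccharomyces cerevisiae BJ5465), induced 36–48 hours with galactose, were stained 1 hour at 4 °C with 10% biotinylated, detergent-solubilized Sf9 membrane reagent, enriched on streptavidin microbeads, then FACS-sorted. Anti-HA (expression) and streptavidin (reagent binding) fluorescence set low and high (top ~1%) gates. Polyreactivity labels come from the gate of origin. Genes were colony-PCR amplified, MiSeq 2 × 250 sequenced and filtered by CDR length.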

Sequence	polyreactivity (PSR sort gate)
QVQLVESGGGLVQAGGSLRLSCAASGITFYVNAMGWYRQAPGKERELVAAINSGSTNYADSVKGRFTISRDNAKNTVYLQMNSLKPEDTAVYYCAVDVYWEFSPEYDYWGQGTQVTVSS	low polyreactivity
QVQLVESGGGLVQAGGSLRISCAASGRIYYRYAMGWYRQAPGKERELVASISGSGGRTYYADSVKGRFTISRDNAKNTVYLQMNSLKPEDTAVYYCAARIRPSYDWGQGTQVTVSS	high polyreactivity
QVQLVESGGGLVQAGGSLRLSCAASGRIFSRNAMGWYRQAPGKERELVAAISRSGTSTYYADSVKGRFTISRDNAKNTVYLQMNSLKPEDTAVYYCAADYPAVISIRRYDYWGQGTQVTVSS	low polyreactivity
QVQLVESGGGLVQAGGSLRLSCAASGSIFSRYAMGWYRQAPGKERELVAAITSSGGRTYYADSVKGRFTISRDNAKNTVYLQMNSLKPEDTAVYYCAAEYYYIVTYDFGYWGQGTQVTVSS	low polyreactivity
QVQLVESGGGLVQPRGSLRLSCAASGGTFKFYAMGWYRQAPGKDRELVAAITSGGSTNYADSVKGRFTISRDNAKNTVYLLMNSLKPEDTALYYCNADFYQRYGVFSSRRYFYWGQGTQVTVSS	low polyreactivity
QVQLVESGGGLVQAGGSLRLSCAASGSTFWVYAMGWYRQAPGKERELVASITFSGSSTYYADSVKGRFTISRDNAKNTVYLQMNSLKPEDTAVYYCAAGEGGDRSRGYLSQYGYWGQGTQVTVSS	low polyreactivity
QVQLVESGGGLVQAGRSLRLSCAASGLTFLYYAMGWYRHAPAKEMEFVAANSNRDGSTYYADSVKGRFTISRDNAKNTVYLQMNSLKPEDTAGYYCYADGYVDYCFLKYRFEFDYWGQGTQVTVSS	low polyreactivity
QVQLVESGGGLVQAGGSLRLSCAASARIFWRNTMGWSRQAPGKERELVAAINYSGGRTYYADSVQGRFTISRDKAKNTVYLQMNSLKPEDTAVFDCAATPPVATNGRYYYWGQGTQVTVSS	low polyreactivity
QVQLVESGGGLVQAGGSLRLSCAASGSTFRTNAMGWYRQAPGKERELVADISKRGGNTYYADSVKGRFTISRDNAKNTVYLQMNCLKPEDTALYDCAAYRVYGYGGGYDYYYWVQGTQVTVSS	high polyreactivity
QVQLVESGGGLVQAGGSLRLSCAASGSTFQFYALGWYRQAPGKERELVAAISVSGDRTYYADSVKGRFTISRDYAKNTVYLQMNSLKPEDTAVYYCAASIWHFEVVSWYLYDYWGQGTQVTVSS	high polyreactivity
QVQLEESGAGLVQAGGSLRLTCAASGSTFYSNVMGWYRQAPGKEREFVAGISGSGGSTYYADSVKGRFTISRDNGNISVYLLINSLKPEDPAVYYCKAVRYPRLLYYWGQGTQVNVSS	high polyreactivity
QVQLVESGGGLVQAGGSLRLSCAASGLTFQWYAMGWYRQAPGKERELVAAISIGGSTNYADSVKGRFTISRDNAKNTVYLQMNSLKPEDTAVYYCNKGSDFFWYDYDYWGQGTQVTVSS	low polyreactivity
QVQLVESGGGLVQAGGSLRLSCAASGSTFQLYDMGWYRQEPGKERELVAGISRDGSTYYADSVKGRFTISRDNAKNTVYLLMNSLKPEDTAVYYCAAKFYGNKRDLYYWGQGTQVTVSS	low polyreactivity
QVQLVESGGSLVQAGGSLRLICAASGITFWPYAMGWYRPAPGKERELVAAINSGGDTYYADSVKGRFTISRDNAKNSVYLQMNILKPEDTAVYYCAKGRDWADEEGYEYWGQGTQVTVSS	low polyreactivity
QVQLVESGGGLVQAGGSLRLSCAASGSIFFWYTMGWYRQAPGKERELVATITGSGSSTTYADSVKGRFTISRDNAKNTVYLQMNSLKPEDTAVYYCAAADIIDHSFPYDYWGQGTQVTVSS	low polyreactivity
QVQLVESGGGLVQAGGSLRLSSDASGNTFVYNAMGWYRQAPGKERKLVAGITKTGGRTYYADSVKGRFTISRDNAKNTVYLQMNSLKPDDTAVYYCAARPWNDGYYVGRFHMDYWGQGTQVTLSS	low polyreactivity
LVLLVESGGGLVQAGGSLRLSCAASGFSFACYGMGWYRQAPGNDRELVAALSWSGGRTYYADSVTGRFTISRDNAKNTVYLQMNSLKPEDTAVDYCYAYWNPASKYDFWGQGTQVTVTS	high polyreactivity
QVQLVESGGGLVQAGGSLSLICAASRRSFYHYTMGWSRQAPGKERELVAAMTSGGSTYYADSVKGRFTISRDNAKNTVYLQMNSLKPEDTAVYYCARVRPLYDYSRYDYWGQRTQVTVSS	high polyreactivity
QVQLVESGGGLVQAGGSLRLSCAASGFYYYAMGWYRQAPGKERELVAVITYSGGSTYYADSVKGRFTISRDNAKNTVYLQMNSLKPEDTAVYYCAADDYYVALPGLYDYWGQGTQVTVSS	low polyreactivity
QVQLVESGGVLVQAGGSLRLTCAASGSTFLYNAMGWYRQAPGKEREFVAAISGSGGTTYYADSVKGRFTISRDNAKNTVYLQMNSLKPEDTAVYYCAVSQSWYWYYASDYWGQGTQVTVSS	low polyreactivity
QVQLVESGGGLVQAGGSLRLSCAASGSTFGFYAMGWYRQAPGKERELVAAISVSGGSTYYADSVKGRFTISRDNAKNTVYLQMNSLNPEDTGVYYCNKVWRPRYYWGLGTQVTVSS	high polyreactivity
QVQLVDSGGGIVQAGGSLRVSCAASGRTFWYYTMGWYIQAPGKERELVAAITSGGSKYYSDSVKGRFTISRDNAKNTVYLQMISLNPEDTAVYYCAAYLLPAYSRISNDYWGQGTQVTVSS	high polyreactivity

Sequence	polyreactivity (PSR sort gate)
QVQLVESGGVLVQAGGSLRLSCAASGYIFSLNGMGWYRQAPGKERELVAAITVSGGRTYYADSVKGRFTISRDNAKNTVYLQMNSLKPEDTAVYYCAKRGKYSYWPYYKYDYWGQGTQVTVSS	high polyreactivity
QVQLVESGGGLVQAGGSLRLSCAASGLIFDYNAMGWYRQAPGKEWELVAAISSGGSTYYADSVKGRFTISRDNANNTVYLQMNSLKPEDTAVYYCAARFSSYVRRYYYWGQGTQVTVSS	high polyreactivity
QVQLVESGGGLVQAGGSLRLSCAASGRTFWTNAMGWYRQAPGKERELVAAISWTTGSTNYADSVKGRFTISRDNAKNTVYLQMNSLKPEDTAVYYWAADSQYGWPEYEYDYWGQGTQVTVSS	low polyreactivity
HVQIVESGRGLVPAGGSLRLSCAASGFIFIRYSMGWSRQAPGKERELVAVISSGGGSTDYADSVKGRFTISRDYAKNTVFLQMISLKPEDTAVYYCAADFLPTYDPYYFWGQGTQVSVSS	low polyreactivity
QVQLVDSGGGLVQAGGSLRLSCPASGRTFYVYDMGWYRQSPGKERELVAVISSSGSTNYADSVKGRFTISRDNAKNTVYLQMNSLKPEDTAVYYCNRRRWYFFSLDFWGEGTQVTVSS	high polyreactivity
QVQLVESGGGLVQAGGSLRLSCAASGSTFYLNAMGWYRQAPGKERELVAAISSSGGSKYYADSVKGRFTISRDNAKNTVYLQMNSLKPEDTAVYYCACSCFPAVSVYGGDYWGQGTQVTVSS	low polyreactivity
QDQLVESGGGLVQAGGSLRLSCAASGRTFRKYAMGWYRPAPGKEREFVAAITSSGGSTYYADSVKGRYTISRDNAKNTVYLQMNSLKPEDTAVYYCAAARTSTGTYRYEYWGQGTQVTVSS	high polyreactivity
QVQLVESGGGLVQAGGSLRLSCAASGRTSLAYAMGWYRQAPGKERELVAGITSGGNTNYADSVKGRFTISCDNAKNTVYLQMNSLKPEDTAVYSCNKKKRWQWYSESVLDYLGFYSWGQGTQVTVSS	low polyreactivity
QVQLVESGGGLAQAGGSLRLSCAASGLIFYYNAMGWYRQAPGKERELVAAISSSGGRTYYADSVKGRFTISRDNAKNTVYLQMNSLKPEDTAVYYCAATSYGYGSRYDYWGQGTQVTVSS	high polyreactivity
QVQLVESGGGLVQAGGSLRLSCAASGRIFASNAMGWYRQAPGKERELVAAIDQGGGSTYYADSVKGRFTISRDNAKNTVYLQMNSLKPEDTAVYDCAADYISAYPRLYNYWGQGTQVTVSS	low polyreactivity
QVQLVESGGGLVQAGASLRLSCAASGSTFYYYAMGWYRQAPGKERELVAAITYRGGSTYYADSVKGRFTISRDNAKNTDFLQMNSLKPEDPAVYYCAADIVTGFISGPGYVYWGQGTQVTVSS	high polyreactivity
QVQHVESGGGLVQAGGSLRLSCAASGSTFLANTMGWYRQAHGKERELVAAITRRGGSTRYADSVKGRFTISRDNAKNTVYLQMNSLKPEDTAVYYCAAPWFRDTRGYSLYDYWGQGTQVTVSS	high polyreactivity
QVQLVESGGGLVQAGGSLRLSCAASGFIFSRNAMGWYRQAPGKERELVAVISTRGGSTYYADSVKGRFTISRDNAKNTVYLQMNSLKPEDTAVYYCAARRTRGYEYWGQGTQVTVSS	high polyreactivity
QVQVVDSGGGLVQAGGSLRLSCAASGSIFYVYAMGWYRQAPGKVWEFVAAIRWFSGSTYYADSVKWRYTISRDNAKNTVYLQMNSLKPEDTAVYYCAARKYKQGRFKYDYWGQGTQVTVSS	high polyreactivity
QVQLVESGGGLVQAGGSLRLSCAASGRIFPYYTRGWYRQAPGKERELVATITTGGSTNYADSVKGRFTISRDNAENTVYLQMNSLKPEDTAVYYCAKREASSRWPYDYWGQGTQVTVSS	low polyreactivity
QVQLVESGGGLVQAGGSLRLSCAASGSIFRNYAMGWYRQAPGKERELVAVITYSGGNTYYADSVKGRFTISRDIAKNTVYLQMNSLKPEDSAVYYCAADYLVVAYGYRYLRHYYWGQGTQVTVSS	high polyreactivity
QVQLQESGDGLVQAVGSLRLSCAASGYISGKYYMGWYRKAPGNERGLLDGIDACGSRTNYADCVKGRFTISRDNAHNTVYLQMNSLKPEDTAVYYCAARPDGDRLFSYWGQGTQVPVSS	low polyreactivity
QVQLQESGGGLVQAGGSLRLSCAASGYISSWYPMGSYRQAPGKEREFVATIAPGATTYYADSVKGRFTISRDYAKNTVYLQMNSLKPEDTAVYYCAAGPENNDFYSYGGQGTQVTVSS	low polyreactivity
QVHLVESGGGLVQAGGSLRLSCAASGSILGGNAMGWYRQAPGKERELVAAITFSGGGTYYADSVKGRFTISRDNAKNTVYLQMNSLKPEDTAVYYCAADKDGYTYEFDYWGQGTQVTVSS	low polyreactivity
QVQLVESGGGLVQAGGSLRLSCAASGSTFYIYAMGWYRQAPGKERELVATITRAGTTNYADSVKGRFTISRDNAMNTVYLQMNSLKPEETAVYYCAKRKFRWPYQGSYSYIPFGYCGQGTQVTVSS	high polyreactivity
QVKLVESGGGLVQAGGSLRLSCAASGRIFDRYAMGWYRQAPGKERELVAAITSRADRTYYADSVKGRFTISRDIAKNTVYLQMNSLKPEDTAVYYCNRRRRHYSYYSTLSYDYWGQGTQVTVSS	high polyreactivity
